The source of these data is paper PMC8131759.

The target in assay [1] is bacteriophage P22 coat protein (CP), assembled as P22 virus-like particle capsid (bacteriophage P22) (UniProt P26747). The assay is described as follows: SEC-MALS; procapsid (PC) VLPs from co-expression of CP and AdhD-SP in E. coli, purified; also SDS-PAGE and TEM; cargo number calculated from the molar mass of the particles; 50 mM sodium phosphate, 100 mM sodium chloride, pH 7.0.

Assay [2] has the same target. The assay is described as follows: SEC-MALS; expanded (EX) VLPs made from PC by 3.5 mM SDS for 5 min at room temperature, then ultracentrifuged twice; also SDS-PAGE and TEM. In general terms: SEC sorts molecules by how far they enter the pores of the column.

Sequence of UniProt P26747 (P26747 whole entry): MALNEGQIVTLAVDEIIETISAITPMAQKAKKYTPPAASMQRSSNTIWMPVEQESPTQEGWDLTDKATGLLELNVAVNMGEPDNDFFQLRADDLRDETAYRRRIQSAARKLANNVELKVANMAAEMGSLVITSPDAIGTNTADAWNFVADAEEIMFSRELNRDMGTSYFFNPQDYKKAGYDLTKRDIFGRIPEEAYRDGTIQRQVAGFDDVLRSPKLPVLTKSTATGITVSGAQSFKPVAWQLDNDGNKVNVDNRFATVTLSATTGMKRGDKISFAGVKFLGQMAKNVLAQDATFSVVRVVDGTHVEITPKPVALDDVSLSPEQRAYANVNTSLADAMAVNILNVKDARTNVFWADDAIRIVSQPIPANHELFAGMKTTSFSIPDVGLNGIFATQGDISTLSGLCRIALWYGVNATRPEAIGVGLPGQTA

For “alcohol dehydrogenase-D (AdhD) fused to P22 scaffolding protein (AdhD-SP) (enzyme)”, the stoichiometry N (AdhD per capsid) in assay [1] was 204. In assay [2], the stoichiometry N (AdhD-SP per VLP) amounted to 174.
